Experimental data reported in PMC4636054.

Target: LlaBIII (UniProt A0A0M3KL05 1-1578)
Test: X-ray crystallography

B1: LlaBIII 28 bp DNA (dsDNA)
DNA 1: GCTCTAGCTAATAGACTGAGCCGAGGTG
DNA 2: CACCTCGGCTCAGTCTATTAGCTAGAGC
binding result: binds
